Test results published in patent US20150346192A1 (Sanofi, published 2015).

B1: scFv 3H2-1 (scFv)
scFv: MAEVQLVESGGSLVKPGGSLRLSCAASGFTFSNYSMNWVRQAPGKGLEWISSISGSSRYIYYADFVKGRFTISRDNATNSLYLQMNSLRAEDTAVYYCVRPIAVSDYWGRGTLVTVSSGGGGSGGGGSGGGGSQSVLTQPASVSGSPGQSITISCAGTSSDVGGYNYVSWYQQHPGKAPKLMIYEDSKRPSGVSNRFSGSKSGNTASLTISGLQAEDEADYYCQTYDGSRAVFGGGTKLAVLGAAAEQKLISEEDLNGAA
notes: also called intracellular antibody 3H2-1; intrabody 3H2-1; not shown: C-terminal Myc tag and 6xHis tag from vector pET23NN
B2: 5H4-VH (other)
VH: MAEVQLVESGGSLVKPGGSLRLSCAASGFTFSNYSMNWVRQAPGKGLEWISSISGSSRYIYYADFVKGRFTISRDNATNSLYLQMNSLRAEDTAVYYCVRDGGLREGFDCWGRGTLVTVSSAAAEQKLISEEDLNGAA
notes: Single human-derived VH domain (truncated scFv, VH only) on the 13R4 framework; produced in E. coli, immobilised on nickel beads; also called 5H4-VH fragment; intracellular antibody 5H4-VH; not shown: C-terminal Myc tag and 6xHis tag from vector pET23NN

Legend:
rCG30986, isoform CRA_a = target: T1, rCG30986, isoform CRA_a (rat); test: IP of RBL-2H3 lysate on nickel beads, MS/MS ProtScore
T1 construct: Endogenous protein from RBL-2H3 (rat) lysate
Procedure: (§1) They were used to immunoprecipitate protein lysates from RBL-2H3 cells stimulated or not beforehand via the FcεRI. After the immunoprecipitations, the beads were washed in low stringency conditions in order to preserve low affinity bindings.
(§2) After digestion with trypsin, the bands were analysed by mass spectrometry MS/MS using the MALDI-TOF (matrix-assisted laser desorption/ionization time of flight) technique.
(§3) The Mass spectrometer which was used is composed of a laser which ionises previously digested peptides; an analyser which measures the mass/charge (m/z) ratios of the ionised peptides as a function of their flight time; and a detector which records the number of ions for each given m/z ratio. The obtained spectra of m/z ratios allow the identification of peptides and thus proteins present in the samples, by interrogating the Genebank rat database, as well as the mouse database for comparison (the mice Genebank data being more complete). A confidence index or ProtScore is attributed for each protein as a function of the number of identified peptides which are part of its sequence and of the nature of these peptides (composition, size). A ProtScore higher than 3 corresponds to 0.1% probability of identifying a false positive, in other words the probability that this protein is present is 99.9%.

CTP synthase = target: T2, CTP synthase (rat); test: as above
T2 construct: Endogenous protein from RBL-2H3 (rat) lysate
Procedure: as §1, §2, §3

[1] = target: T3, metastasis associated 1 family, member 2 (rat); test: as above
T3 construct: Endogenous protein from RBL-2H3 (rat) lysate
Procedure: as §1, §2, §3

[2] = target: T4, fragile X mental retardation 1 (rat); test: as above
T4 construct: Endogenous protein from RBL-2H3 (rat) lysate
Procedure: as §1, §2, §3

[3] = target: T5, CCCH-type zinc finger antiviral protein (rat); test: as above
T5 sequence (Q8K3Y6 2-776, looked up): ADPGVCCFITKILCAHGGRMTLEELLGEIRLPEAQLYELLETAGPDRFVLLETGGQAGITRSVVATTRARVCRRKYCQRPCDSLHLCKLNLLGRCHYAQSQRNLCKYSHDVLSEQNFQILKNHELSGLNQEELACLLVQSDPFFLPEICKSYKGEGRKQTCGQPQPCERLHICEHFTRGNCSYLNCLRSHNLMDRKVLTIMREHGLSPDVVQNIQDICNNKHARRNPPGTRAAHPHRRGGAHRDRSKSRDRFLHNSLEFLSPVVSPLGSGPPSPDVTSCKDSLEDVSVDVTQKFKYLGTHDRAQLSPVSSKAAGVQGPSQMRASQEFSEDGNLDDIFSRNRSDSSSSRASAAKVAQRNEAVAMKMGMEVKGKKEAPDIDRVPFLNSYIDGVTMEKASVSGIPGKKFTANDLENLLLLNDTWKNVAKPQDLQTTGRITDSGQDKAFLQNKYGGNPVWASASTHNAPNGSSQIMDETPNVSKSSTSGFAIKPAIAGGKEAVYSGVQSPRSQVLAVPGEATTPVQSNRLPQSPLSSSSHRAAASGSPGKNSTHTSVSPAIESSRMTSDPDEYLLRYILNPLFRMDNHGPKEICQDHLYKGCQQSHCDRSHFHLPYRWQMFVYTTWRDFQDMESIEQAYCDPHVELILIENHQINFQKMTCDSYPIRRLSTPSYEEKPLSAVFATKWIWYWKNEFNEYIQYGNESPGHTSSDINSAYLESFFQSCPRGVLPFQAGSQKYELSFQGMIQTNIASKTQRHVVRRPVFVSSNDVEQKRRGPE
Procedure: as §1, §2, §3

[4] = target: T6, ATP-binding cassette sub-family F member 1 (rat, UniProt Q6MG08 1-839); test: as above
T6 construct: Endogenous protein from lysates of the rat mast cell line RBL-2H3; also called ABCF1; ABCF1 protein
Procedure: as §1, §2, §3

[5] = target: T7, guanine nucleotide binding protein-like 2 (rat); test: as above
T7 construct: Endogenous protein from RBL-2H3 (rat) lysate
Procedure: as §1, §2, §3

[6] = target: T8, lysine (K)-specific demethylase 1 (rat); test: as above
T8 construct: Endogenous protein from RBL-2H3 (rat) lysate
Procedure: as §1, §2, §3

[7] = target: T9, PREDICTED: similar to myosin IG (rat); test: IP of RBL-2H3 lysate on nickel beads, MS/MS ProtScore; 1st value
T9 construct: Endogenous protein from RBL-2H3 (rat) lysate
Procedure: as §1, §2, §3

[8] = target: T10, adaptor-related protein complex 2, alpha 1 subunit (rat); test: as above
T10 construct: Endogenous protein from RBL-2H3 (rat) lysate
Procedure: as §1, §2, §3

[9] = target: T11, kinesin family member 20A (rat); test: as above
T11 construct: Endogenous protein from RBL-2H3 (rat) lysate
Procedure: as §1, §2, §3

vesicle docking protein [10] = target: T12, vesicle docking protein (rat); test: as above
T12 construct: Endogenous protein from RBL-2H3 (rat) lysate; a separate GenBank entry from gi 9507177
Procedure: as §1, §2, §3

[11] = target: T9, PREDICTED: similar to myosin IG; test: IP of RBL-2H3 lysate on nickel beads, MS/MS ProtScore; 2nd value
Procedure: as §1, §2, §3

[12] = target: T10, adaptor-related protein complex 2, …; test: as above
Procedure: as §1, §2, §3

[13] = target: T11, kinesin family member 20A; test: as above
Procedure: as §1, §2, §3

vesicle docking protein [14] = target: T12, vesicle docking protein; test: as above
Procedure: as §1, §2, §3

T12 sequence (P41542 whole entry): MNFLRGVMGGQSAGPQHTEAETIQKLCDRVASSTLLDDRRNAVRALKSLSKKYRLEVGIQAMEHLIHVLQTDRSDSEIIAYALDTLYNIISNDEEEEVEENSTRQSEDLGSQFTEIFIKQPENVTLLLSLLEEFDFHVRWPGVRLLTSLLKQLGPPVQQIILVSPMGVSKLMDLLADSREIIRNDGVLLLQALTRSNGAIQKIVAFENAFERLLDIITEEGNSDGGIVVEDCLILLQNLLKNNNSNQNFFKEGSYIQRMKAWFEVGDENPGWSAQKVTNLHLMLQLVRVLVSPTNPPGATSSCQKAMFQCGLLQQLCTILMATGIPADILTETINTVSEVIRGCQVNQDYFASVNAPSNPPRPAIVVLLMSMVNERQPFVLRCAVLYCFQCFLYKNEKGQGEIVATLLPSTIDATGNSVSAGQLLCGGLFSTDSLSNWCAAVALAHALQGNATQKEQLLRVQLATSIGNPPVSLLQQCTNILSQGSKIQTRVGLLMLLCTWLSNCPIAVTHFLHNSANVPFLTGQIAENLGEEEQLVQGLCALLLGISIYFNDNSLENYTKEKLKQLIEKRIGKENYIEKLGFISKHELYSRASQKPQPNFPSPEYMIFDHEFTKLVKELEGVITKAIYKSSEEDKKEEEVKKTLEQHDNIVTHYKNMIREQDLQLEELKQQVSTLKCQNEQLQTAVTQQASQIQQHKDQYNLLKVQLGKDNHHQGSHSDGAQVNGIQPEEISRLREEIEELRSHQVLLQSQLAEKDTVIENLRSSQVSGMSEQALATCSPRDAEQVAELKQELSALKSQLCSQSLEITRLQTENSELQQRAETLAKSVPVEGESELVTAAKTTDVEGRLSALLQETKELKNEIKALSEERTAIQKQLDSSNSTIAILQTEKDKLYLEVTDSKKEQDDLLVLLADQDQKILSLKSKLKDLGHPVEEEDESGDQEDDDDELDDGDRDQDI
T6 sequence (Q6MG08 whole entry): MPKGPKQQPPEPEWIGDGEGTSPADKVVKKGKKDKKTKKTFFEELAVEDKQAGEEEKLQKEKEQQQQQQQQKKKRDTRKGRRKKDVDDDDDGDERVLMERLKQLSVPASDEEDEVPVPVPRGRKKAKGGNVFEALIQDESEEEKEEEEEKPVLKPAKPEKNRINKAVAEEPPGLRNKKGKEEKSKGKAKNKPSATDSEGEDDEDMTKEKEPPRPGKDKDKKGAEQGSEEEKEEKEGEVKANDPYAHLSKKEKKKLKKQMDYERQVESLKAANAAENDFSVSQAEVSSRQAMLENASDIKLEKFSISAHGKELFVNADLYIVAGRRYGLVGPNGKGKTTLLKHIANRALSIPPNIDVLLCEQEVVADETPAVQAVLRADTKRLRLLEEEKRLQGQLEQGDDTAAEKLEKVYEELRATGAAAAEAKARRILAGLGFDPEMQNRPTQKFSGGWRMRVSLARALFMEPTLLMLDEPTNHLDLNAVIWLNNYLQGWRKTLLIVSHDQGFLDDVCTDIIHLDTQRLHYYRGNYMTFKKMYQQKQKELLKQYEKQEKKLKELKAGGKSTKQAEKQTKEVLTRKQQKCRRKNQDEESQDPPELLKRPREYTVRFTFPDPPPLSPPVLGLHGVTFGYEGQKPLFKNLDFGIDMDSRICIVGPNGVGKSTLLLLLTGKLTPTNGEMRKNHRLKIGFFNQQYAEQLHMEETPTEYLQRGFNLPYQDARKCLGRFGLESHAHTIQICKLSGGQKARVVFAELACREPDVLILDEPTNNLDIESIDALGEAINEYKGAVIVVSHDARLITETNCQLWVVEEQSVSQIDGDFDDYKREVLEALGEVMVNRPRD

Binder | Protscore IP (rCG30986, isoform CRA_a) | Protscore IP (CTP synthase) | Protscore IP [1] | Protscore IP [2] | Protscore IP [3] | Protscore IP [4] | Protscore IP [5] | Protscore IP [6] | Protscore IP [7] | Protscore IP [8] | Protscore IP [9] | Protscore IP (vesicle docking protein [10]) | Protscore IP [11] | Protscore IP [12] | Protscore IP [13] | Protscore IP (vesicle docking protein [14])
B1 | 10 | 7 | 4 | 4 | 4 | 51 | 10 | 10 | – | – | – | – | – | – | – | –
B2 | – | – | – | – | – | – | – | – | 8 | 15 | 8 | 8 | 20 | 6 | 10 | 5
